Target: Fluorescently labelled Asgard ESCRT-IIIB (Heimdallarchaeota archaeon AB_125), full length (Heimdallarchaeota archaeon AB_125)
Experiment: TIRF microscopy on supported lipid bilayers

time to reach plateau [s] | Substance
160 | Fluorescently labelled Asgard ESCRT-IIIA (Heimdallarchaeota archaeon AB_125), full length (natural protein)
> 1000 | Fluorescently labelled Asgard ESCRT-IIIB (Heimdallarchaeota archaeon AB_125), full length (natural protein)
